Source: patent publication US20250011363A1, “OPTIMIZED SHORTENED PEPTIDE THAT BINDS TO ACETYLCHOLINE RECEPTOR, AND USE THEREOF” (SKINMED CO., LTD., priority 2021, published 2025)

molecular target: acetylcholine receptor; test: SPR, peptide at 10 uM on immobilized AchR

| Binder | Binding affinity (RU) |
| --- | --- |
| KAWERK [6mer-2-1094] | 43 RU |
| KYSMRR [6mer-2-1095] | 39 RU |
| RANVKR [6mer-2-1096] | 39 RU |
| RFWEKK [6mer-2-1097] | 23 RU |
| KHPKRR [6mer-2-1098] | 28 RU |

molecular target: acetylcholine receptor; test: SPR, AchR immobilized on chip, peptide 10 uM

| Binder | Binding affinity (RU) |
| --- | --- |
| KQFLR [5mer-149] | 80 RU |
| KGLYR [5mer-449] | 65 RU |
| RVRTR [5mer-150] | 64 RU |
| RVIQK [5mer-450] | 78 RU |
| RVFTK [5mer-151] | 66 RU |
| RQVLK [5mer-451] | 53 RU |
| RRRRR [5mer-152] | 56 RU |
| RGVSK [5mer-452] | 82 RU |
| RSIQK [5mer-153] | 72 RU |
| KGVCR [5mer-453] | 68 RU |
| RSITR [5mer-154] | 54 RU |
| RQVLR [5mer-454] | 77 RU |
| KRYLR [5mer-155] | 57 RU |
| RWLYK [5mer-455] | 61 RU |
| KGLRK [5mer-156] | 85 RU |
| RLVCK [5mer-456] | 52 RU |
| KGRCR [5mer-157] | 78 RU |
| RGQYK [5mer-457] | 59 RU |
| RWQTK [5mer-158] | 65 RU |
| RRFLK [5mer-458] | 65 RU |
| RGQRR [5mer-159] | 73 RU |
| RSQLR [5mer-459] | 76 RU |
| RSIRR [5mer-160] | 53 RU |
| RLQQR [5mer-460] | 74 RU |
| KWVTK [5mer-161] | 52 RU |
| KQLLK [5mer-461] | 74 RU |

| Binder | Binding affinity (RU) |
| --- | --- |
| RGYQR [5mer-162] | 51 RU |
| RWQSK [5mer-462] | 69 RU |
| KSLCK [5mer-163] | 61 RU |
| KWYTK [5mer-463] | 52 RU |
| KSICK [5mer-164] | 54 RU |
| RGVTR [5mer-464] | 57 RU |
| KWRSK [5mer-165] | 56 RU |
| RWFRK [5mer-465] | 57 RU |
| KSFQR [5mer-166] | 55 RU |
| RRVRK [5mer-466] | 53 RU |
| KQFRK [5mer-167] | 64 RU |
| RRIYR [5mer-467] | 83 RU |
| KLFSK [5mer-168] | 84 RU |
| RWQCK [5mer-468] | 54 RU |
| RWYRK [5mer-169] | 61 RU |
| KSRRR [5mer-469] | 69 RU |
| RLICK [5mer-170] | 62 RU |
| KQRSK [5mer-470] | 57 RU |
| KSIQR [5mer-171] | 55 RU |
| RGYLR [5mer-471] | 69 RU |
| RSRRR [5mer-172] | 82 RU |
| RRYRK [5mer-472] | 55 RU |
| RSVSR [5mer-173] | 59 RU |
| RLVQR [5mer-473] | 75 RU |
| KGRQR [5mer-174] | 59 RU |
| RQFLR [5mer-474] | 80 RU |
